From patent publication US20250263490A1 (VIB VZW, published 2025) come the findings set out here.

The target of experiment [1] is T1, recombinant human domain 1-3His6 of the cation-independent mannose-6-phosphate receptor (human, UniProt P11717 41-467).
T1 construct: Biotinylated (NHS-PEG4-biotin) for BLI; Glycosylated; also called hDom1-3His6; hCI-M6PRD1-D3
Briefly: BLI exp 2, dissoc pH not printed (between 7 and 6, presumably 6.5).

Experiment [2] concerns the target T1, recombinant human domain 1-3His6 of the …. Briefly: BLI exp 2, dissoc pH not printed (between 6 and 5, presumably 5.5). The procedure: For each of the 11 anti-CI-M6PR VHHs, a biolayer interferometry (BLI) experiment was performed in which the hDom₁₋₃His₆ was biotinylated and coupled to streptavidin biosensor tips. Afterwards, the tips were incubated with serially diluted VHHs during the association phase and dissociation was performed at pH 7.4. Similarly, dissociation was performed at pH 7.0, pH 6.0 and pH 5.0 as well after regeneration of the biosensor tips. […] The anti-CI-M6PR antibody (clone 2G11) and GBP were used as positive and negative controls, respectively.
Analysis of the binding kinetics was performed using an Octet Red96 (FortéBio) device with Streptavidin SA Biosensor tips (VWR, 733-2145). To this end, 1 mL of hCI-M6PR_D1-D3 (0.5 mg/mL in 50 mM MES, 150 mM NaCl, pH 6.5) was incubated at room temperature for 30 minutes with a two-fold molar excesses of EZ-Link™ NHS-PEG₄-Biotin (Thermo Fischer, A39259) and NaHCO₃ (100 mM, pH 8.3). Biotinylated hCIMPR_D1-D3 was purified using a Zeba spin desalting column (Thermo Fischer, 89890) and protein concentration was calculated by measuring the absorbance at 280 nm (extinction coefficient 50320 M¹ cm⁻¹). Two-fold biotin-labelled antigen was loaded on the tips (2.5 μg/mL) and subsequently dipped into a particular anti-CI-M6PR VHH-containing solution (ranging from 0-100 nM). […]

Experiment [3] has the same target. Briefly: BLI, dissoc pH 6.5, mean of local fits. The procedure:
(§1) FIGS. 58 & 59. […] BLI was performed on an Octet Red96 (FortéBio) instrument in kinetics buffer (0.2 M Na₂HPO₄, 0.1 M Na⁺ citrate, 0.01% bovine serum albumin, 0.002% Tween-20). Biotinylated human domain₁₋₃His₆ was immobilized on Streptavidin SA biosensors (Sartorius) to a signal of 0.6 nm. […] Between assays, biosensors were regenerated by three times 10 s exposure to regeneration buffer (10 mM glycine pH 3). The degree of association and dissociation was measured in δ nm over time (s).
(§2) After loading, the tips were incubated with VHHs serially diluted in pH 7.4 kinetic buffer during the association phase and dissociation was performed at pH 7.4, pH 6.5, pH 6.0, pH 5.5 and pH 5.0. All biosensor tips were then regenerated before analysis of the subsequent VHH. Table 13 summarizes the kinetic parameters retrieved after processing and curve fitting of the BLI measurements. When both association and dissociation were performed at pH 7.4, a global fit was performed according to the 1:1 binding model of which the resulting affinity constants (KD), association (kₒₙ) and dissociation rate constants (koff) are shown. For measurements with association at pH 7.4 and dissociation at pH 6.5, 6.0, 5.5 and 5.0, the depicted dissociation rate constants are an average of the parameters determined by local curve fitting of the dissociation of 200, 100 and 50 nM VHH.
In general terms: BLI is a label-free optical method that tracks binding on a fibre tip over time.

The target is the same in experiment [4]. The experiment in a line: BLI, dissoc pH 6, mean of local fits. The procedure:
as §1, §2

Experiment [5] shares this target. The experiment in a line: BLI, global 1:1 fit, pH 7.4. As to the method:
as §1, §2

For experiment [6] the target is unchanged. Briefly: BLI at pH 7.4, 2nd of 2 repeats; BLI, biotinylated hDom1-3His6 on streptavidin tips, pH 7.4, experiment 2.
The target of experiment [7] is T2, mouse cation-independent mannose-6-phosphate receptor on cells (mouse, UniProt Q07113 36-2483).
T2 construct: whole, on cells; also called mouse CI-M6PR of bEND3 cells; mCI-M6PR
Briefly: flow cytometry on fixed/permeabilised mouse bEND3 cells (sheet: Binding FACS in bEND3 (Fixed/Permeabilized); legend: internalisation detected upon permeabilisation) [upper graph]. From the text:
(§3) Synthetic DNA fragments encoding VHHs were ordered (IDT, Leuven, Belgium) and subcloned into an E. coli expression vector under control of an IPTG-inducible lac promoter, in frame with N-terminal PelB signal peptide (which directs the recombinant proteins to the periplasmic compartment) and C-terminal FLAG3 and His6 tags. […] VHH proteins were purified from these clones by means of IMAC chromatography followed by desalting according to well established procedures¹⁰⁶. Cells used herein were recovered using cell dissociation non-enzymatic solution (Sigma Aldrich, cat. #C5914-100ML) and resuspended to a final concentration of 1,000,000 cells/mL in FACS buffer. Cells were incubated with different concentrations of purified FLAG3-tagged VHHs for 30 minutes on ice with shaking, followed by washing and incubation with mouse M2 anti-Flag mAb (Sigma Aldrich, cat. #F-1804) in FACS buffer for 30 min on ice with shaking, followed again by washing. […] Flow cytometry and analysis were done on an Attune NxT Flow Cytometer (Thermo Fisher Scientific).

For experiment [8], the target named is T2, mouse cation-independent …. The experiment in a line: flow cytometry, FLAG3-His6 VHH on mouse bEND3 cells.
Excerpt: as §3
Moreover, cross-reactivity to mouse CI-M6PR was analyzed, in view of the amino acid homology between mouse and human being overall about 80% identity, but for domain 1-3 of CI-M6PR just about 75% identity.

T2 sequence (Q07113 36-2483): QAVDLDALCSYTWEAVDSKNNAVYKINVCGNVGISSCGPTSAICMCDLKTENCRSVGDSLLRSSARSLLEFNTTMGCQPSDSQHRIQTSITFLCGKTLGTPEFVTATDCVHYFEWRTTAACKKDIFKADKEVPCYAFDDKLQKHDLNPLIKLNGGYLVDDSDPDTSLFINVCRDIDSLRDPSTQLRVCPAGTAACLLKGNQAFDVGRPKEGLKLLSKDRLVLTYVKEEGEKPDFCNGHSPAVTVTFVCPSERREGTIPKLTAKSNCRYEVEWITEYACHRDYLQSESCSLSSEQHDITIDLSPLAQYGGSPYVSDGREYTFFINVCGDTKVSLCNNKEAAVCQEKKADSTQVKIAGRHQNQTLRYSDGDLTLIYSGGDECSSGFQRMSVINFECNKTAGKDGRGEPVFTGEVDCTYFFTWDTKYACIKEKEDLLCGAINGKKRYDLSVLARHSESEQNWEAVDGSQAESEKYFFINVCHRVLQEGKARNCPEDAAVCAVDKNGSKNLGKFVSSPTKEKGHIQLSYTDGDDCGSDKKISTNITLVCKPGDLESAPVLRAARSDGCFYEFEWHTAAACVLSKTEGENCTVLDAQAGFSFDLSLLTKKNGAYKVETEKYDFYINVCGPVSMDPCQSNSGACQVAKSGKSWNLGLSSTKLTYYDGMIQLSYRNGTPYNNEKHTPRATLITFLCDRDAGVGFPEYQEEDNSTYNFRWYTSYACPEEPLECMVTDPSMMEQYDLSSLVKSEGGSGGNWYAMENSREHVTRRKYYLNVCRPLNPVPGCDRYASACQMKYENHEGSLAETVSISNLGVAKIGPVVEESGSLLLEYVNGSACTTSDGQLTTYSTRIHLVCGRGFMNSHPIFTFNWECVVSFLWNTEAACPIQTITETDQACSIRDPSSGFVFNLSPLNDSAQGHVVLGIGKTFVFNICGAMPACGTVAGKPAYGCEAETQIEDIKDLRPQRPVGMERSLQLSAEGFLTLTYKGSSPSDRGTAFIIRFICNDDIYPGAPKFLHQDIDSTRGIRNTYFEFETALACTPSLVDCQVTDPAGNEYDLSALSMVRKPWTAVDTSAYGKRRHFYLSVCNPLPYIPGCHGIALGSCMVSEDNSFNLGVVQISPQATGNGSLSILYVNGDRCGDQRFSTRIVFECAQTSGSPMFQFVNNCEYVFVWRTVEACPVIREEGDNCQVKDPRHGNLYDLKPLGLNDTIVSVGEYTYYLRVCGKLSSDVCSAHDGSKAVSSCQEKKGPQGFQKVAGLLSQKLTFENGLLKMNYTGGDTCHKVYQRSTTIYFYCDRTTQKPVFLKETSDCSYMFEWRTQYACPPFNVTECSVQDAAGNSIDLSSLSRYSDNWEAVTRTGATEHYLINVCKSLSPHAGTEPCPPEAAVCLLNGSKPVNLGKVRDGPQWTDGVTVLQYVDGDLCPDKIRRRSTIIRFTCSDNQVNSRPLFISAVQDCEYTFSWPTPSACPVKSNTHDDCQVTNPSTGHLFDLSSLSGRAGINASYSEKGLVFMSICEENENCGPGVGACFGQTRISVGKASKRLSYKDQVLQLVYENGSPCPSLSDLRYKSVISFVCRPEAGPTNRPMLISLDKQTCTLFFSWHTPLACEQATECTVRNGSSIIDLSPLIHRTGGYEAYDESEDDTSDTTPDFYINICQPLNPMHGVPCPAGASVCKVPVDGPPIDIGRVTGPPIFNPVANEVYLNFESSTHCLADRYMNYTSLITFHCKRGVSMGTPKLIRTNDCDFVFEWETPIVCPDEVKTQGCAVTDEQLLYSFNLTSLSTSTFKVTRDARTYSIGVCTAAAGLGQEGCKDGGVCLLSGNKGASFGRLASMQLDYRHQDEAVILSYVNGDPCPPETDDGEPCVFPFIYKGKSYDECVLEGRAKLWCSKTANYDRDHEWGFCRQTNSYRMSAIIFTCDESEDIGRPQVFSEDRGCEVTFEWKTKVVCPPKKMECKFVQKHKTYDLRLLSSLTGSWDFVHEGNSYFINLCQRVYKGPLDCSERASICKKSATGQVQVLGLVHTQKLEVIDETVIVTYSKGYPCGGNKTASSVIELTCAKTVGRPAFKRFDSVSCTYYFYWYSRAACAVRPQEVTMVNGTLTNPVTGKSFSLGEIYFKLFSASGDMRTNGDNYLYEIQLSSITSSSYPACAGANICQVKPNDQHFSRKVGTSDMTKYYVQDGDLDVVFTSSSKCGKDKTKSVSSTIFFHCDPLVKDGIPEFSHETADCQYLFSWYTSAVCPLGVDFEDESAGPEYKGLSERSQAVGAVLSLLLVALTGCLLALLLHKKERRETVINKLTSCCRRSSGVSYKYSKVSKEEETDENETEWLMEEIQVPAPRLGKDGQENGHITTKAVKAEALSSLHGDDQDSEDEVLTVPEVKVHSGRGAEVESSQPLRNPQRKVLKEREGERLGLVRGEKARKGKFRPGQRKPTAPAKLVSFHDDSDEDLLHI

B1: anti-CI-M6PR VHH5 (VHH)
VHH: QVQLQESGGGLVQAGGSLKLSCAAAGRTFSRLAMGWFRQAPGKEREFVAAISENGDSIHYSDSVKGRFAVSRDNAKNTVYLQMNSLKPEDTAIYYCAADRAAYYCSGSGCYPSRAPAAASYDYWGQGTQVTVSS
notes: His6-tagged; made in Pichia pastoris, later also in E. coli WK6
Turning to B1, in experiment [1], the dissociation rate constant (koff) (as a rule, a measure of how fast the partners let go of each other) turned out to be 0.00017 s⁻¹. In experiment [2], the koff is 0.00062 s⁻¹ and the kon (commonly the second-order rate constant of association) worked out at 2.1e+06 M⁻¹ s⁻¹.

B2: anti-CI-M6PR VHH 1H11 (VHH)
VHH: QVQLQESGGGLVQPGGSLRLSCAASGIIFSDNRMDWYRQAPGKQREWVATLASYGWKTYADSVKDRFTISRDNAKNTVNLYMNSLQPEDTAVYYCNSGQYWGQGTQVTVSS
notes: made in E. coli WK6, His-tag purified
On to B2, for which the off-rate (koff) in experiment [3] was found to be 0.0048 s⁻¹; in experiment [4], 0.0051 s⁻¹; in experiment [5], 0.0025 s⁻¹. Also, the Kd (in general, the free concentration of one partner at which half of the binding sites on the other are occupied at equilibrium, for simple one-to-one binding) in experiment [5] amounted to 4.9 nM. In addition, the kon in experiment [5] was 510000 M⁻¹ s⁻¹.

B3: anti-CI-M6PR VHH4 (VHH)
VHH: QVQLQESGGGLVQAGGSLRLSCAASGRTFSNYVMGWFRQAPGKEREFVGSISQGGKMTYYPDSVKGRFTISRDNAKNTMYLQMDGLKPEDTAVYYCAVSRGYPMVRVSEVDYWGQGTQVTVSS
notes: His6-tagged; made in Pichia pastoris
Turning to B3, in experiment [6], the Kd was 2.34 nM and the association rate constant (kon) was determined as 571000 M⁻¹ s⁻¹.

B4: anti-CI-M6PR VHH7 (VHH)
VHH: QVQLQESGGGLVQPGGSLRLSCAASGIIFSDNRMDWYRQAPGKQREWVATLASYGWKTYADSVKGRFTISRDNTKNTVYLRMNSLKPEDTAVYYCKASSPVLNDIWGQGTQVTVSS
notes: His6-tagged (Pichia pastoris)
Consider B4, for which the EC50 (read off the curve) (usually the concentration giving half of the maximal effect) in experiment [7] was roughly 50 nM. Besides, the 50% effective concentration (EC50) (usually the midpoint of the concentration-response curve) in experiment [8] is roughly 8.5 nM.
